Substitutions are numbered along the chain they refer to. Values belong to the molecule of their own block, whether it stands above or below them.
Legend:
mouse CCR8 = target: T1, mouse CCR8 (Mus musculus, UniProt P56484); test: Antigen-binding test on transiently expressing Expi293 cells; set-up: key: an antibody having significantly reduced binding activity was indicated as A; an antibody having binding activity of the detection limit or less was indicated as x; The blank column means that it exhibits the same binding activity as the wild-type human CCR8 (hCCR8); details: 5, 0.5 and 0.05 ug/mL, in comparison to wild-type hCCR8
T1 construct: expressed in transfected cells; host or cells: Expi293 cells, pcDNA 3.4 vector, transient
T1 sequence (P56484 1-353): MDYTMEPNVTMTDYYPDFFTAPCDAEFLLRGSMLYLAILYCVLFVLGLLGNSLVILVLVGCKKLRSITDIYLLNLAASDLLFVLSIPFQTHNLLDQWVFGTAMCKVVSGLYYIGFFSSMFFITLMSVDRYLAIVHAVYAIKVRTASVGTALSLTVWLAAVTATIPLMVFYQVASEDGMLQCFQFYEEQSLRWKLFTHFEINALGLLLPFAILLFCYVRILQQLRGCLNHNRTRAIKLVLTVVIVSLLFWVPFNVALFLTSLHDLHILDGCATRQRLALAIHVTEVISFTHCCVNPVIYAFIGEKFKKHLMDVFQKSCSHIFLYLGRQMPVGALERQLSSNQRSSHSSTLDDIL
Excerpt: (§1) The gene encoding the full length of human CCR8 (UniProtKB/Swiss-Prot: P51685, SEQ ID NO: 1), the gene encoding the full length of human CCR4 (UniProtKB/Swiss-Prot: P51679, SEQ ID NO: 48) and the gene encoding the full length of mouse CCR8 (UniProtKB/Swiss-Prot: P56484, SEQ ID NO: 39) were cloned into pcDNA 3.4 vectors, respectively. These vectors were used for transfection to produce Expi293 cells transiently expressing human CCR8, human CCR4, or mouse CCR8. These cells were reacted with a dilution series of the purified antibodies of each clone, and the binding properties thereof were evaluated by detection with Alexa488-labeled anti-mouse IgG antibody (manufactured by Thermo Fisher Scientific). As a result, every antibody bound to human CCR8, but not to human CCR4 and mouse CCR8 at all.

human CCR4 = target: T2, human CCR4 (Homo sapiens, UniProt P51679); test: as above; set-up: key: an antibody having significantly reduced binding activity was indicated as A; an antibody having binding activity of the detection limit or less was indicated as x; The blank column means that it exhibits the same binding activity as the wild-type human CCR8 (hCCR8); details: 5, 0.5 and 0.05 ug/mL, in comparison to wild-type hCCR8
T2 construct: expressed in transfected cells; host or cells: Expi293 cells, pcDNA 3.4 vector, transient
T2 sequence (P51679 1-360): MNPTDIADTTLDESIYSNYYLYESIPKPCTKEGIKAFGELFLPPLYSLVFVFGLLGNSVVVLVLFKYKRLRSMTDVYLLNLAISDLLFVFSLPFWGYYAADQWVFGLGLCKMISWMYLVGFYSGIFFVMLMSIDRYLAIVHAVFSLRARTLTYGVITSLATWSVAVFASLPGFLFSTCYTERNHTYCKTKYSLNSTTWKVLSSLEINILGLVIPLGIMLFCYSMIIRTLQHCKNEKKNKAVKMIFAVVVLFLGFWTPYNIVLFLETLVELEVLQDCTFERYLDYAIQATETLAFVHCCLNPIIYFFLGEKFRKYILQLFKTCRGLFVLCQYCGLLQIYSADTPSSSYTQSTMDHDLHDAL
Excerpt: as §1

loop2 hCCR4-hCCR8 = target: T3, loop2 hCCR4-hCCR8 (Homo sapiens, UniProt P51685, A175Y/D178R/F186K/F197L/F200L/G179N/I196V/K193T/K201E/L181T/L192T/M202I/N188S/N199S/Q173T/Q182Y/Q189L/Q190N/S176T/S185T/T191S/T198S/V174C/V180H/Y172S/Y184K); test: Antigen-binding test, chimera; details: 5, 0.5 and 0.05 ug/mL, in comparison to wild-type hCCR8
T3 construct: expressed in transfected cells; host or cells: Expi293 cells (method similar to that for the wild type)

hCCR8 (K35A) = target: T4, hCCR8 (K35A) (Homo sapiens, UniProt P51685, K35A); test: Antigen-binding test, human CCR8 point mutant; set-up: key: an antibody having significantly reduced binding activity was indicated as A; an antibody having binding activity of the detection limit or less was indicated as x; The blank column means that it exhibits the same binding activity as the wild-type human CCR8 (hCCR8); details: in comparison to wild-type hCCR8
T4 construct: expressed in transfected cells; host or cells: Expi293 cells (method similar to that for the wild type)
Excerpt: (§2) Further, to analyze in more detail the N-terminal region that is an epitope region common to all clones having strong neutralization, the human CCR8 point mutants shown in Table 2 were produced. […] It is thus considered that the neutralizing antibodies recognize Y at position 17. In addition, although clone No. 8F7 is only shown in Table 2, plural other neutralizing antibodies had reduced binding activity to the mutant in which I at position 20 of human CCR8 is substituted with A (hCCR8 (I20A)). It is thus considered that some neutralizing antibodies have stereo-structural recognition to bind to isoleucine at position 20.

hCCR8 (T11A) = target: T5, hCCR8 (T11A) (Homo sapiens, UniProt P51685, T11A); test: Antigen-binding test, human CCR8 point mutant; details: in comparison to wild-type hCCR8
T5 construct: expressed in transfected cells; host or cells: Expi293 cells (method similar to that for the wild type)
Excerpt: as §2

loop1 hCCR4-hCCR8 = target: T6, loop1 hCCR4-hCCR8 (Homo sapiens, UniProt P51685, L95A/L96A/M105L/T103L/V104G); test: Antigen-binding test, chimera; details: 5, 0.5 and 0.05 ug/mL, in comparison to wild-type hCCR8
T6 construct: expressed in transfected cells; host or cells: Expi293 cells (method similar to that for the wild type)

hCCR8 (L5A) = target: T7, hCCR8 (L5A) (Homo sapiens, UniProt P51685, L5A); test: Antigen-binding test, human CCR8 point mutant; details: in comparison to wild-type hCCR8
T7 construct: expressed in transfected cells; host or cells: Expi293 cells (method similar to that for the wild type)

hCCR8 (I20A) = target: T8, hCCR8 (I20A) (Homo sapiens, UniProt P51685, I20A); test: Antigen-binding test, human CCR8 point mutant; details: in comparison to wild-type hCCR8
T8 construct: expressed in transfected cells; host or cells: Expi293 cells (method similar to that for the wild type)
Excerpt: as §2

hCCR8 (I30A) = target: T9, hCCR8 (I30A) (Homo sapiens, UniProt P51685, I30A); test: Antigen-binding test, human CCR8 point mutant; details: in comparison to wild-type hCCR8
T9 construct: expressed in transfected cells; host or cells: Expi293 cells (method similar to that for the wild type)
Excerpt: as §2

[1] = tested on: colon cancer-derived Colon26 cells; test: Example 11: hCCR8-KI (KI/KI) mice inoculated with Colon26 cells, oxaliplatin combination (Part 2); type: in vivo, mouse; details: as Example 6; 2-7B part: oxaliplatin 10, 14, 17 days, antibody 14, 17 days; 19D7 part: oxaliplatin 10, 14 days, antibody 14 days; combinations from 10 days; Student's T one-sided
Method: The back of each hCCR8-KI (KI/KI) mouse (12 weeks old, female) prepared in Test Example 10 was intracutaneously inoculated with 3.5×10^5 colon cancer-derived Colon26 cells (50 uL).
To an oxaliplatin single administration group, saline was intravenously administered 5 days after tumor inoculation, and oxaliplatin (trade name: ELPLAT, Yakult Honsha Company, Limited) at 5 mg/kg body weight was intravenously administered 3 hours after the administration of the saline (N=10). To an anti-mouse CCR8 antibody and oxaliplatin combined administration group, an anti-human CCR8 antibody at 15 mg/kg body weight was intravenously administered 5 days after tumor inoculation, and oxaliplatin at 5 mg/kg body weight was intravenously administered 3 hours after the administration of the anti-mouse CCR8 antibody (N=10). To a control group, saline was intravenously administered 5 days after tumor inoculation, and saline was intravenously administered 3 hours after the administration of the saline (N=10). […] Tumor volumes were measured every 1 to 3 days from 4 days after tumor inoculation (a day before antibody administration). The tumor volume (mm^3) was measured in long diameter (mm)×short diameter (mm)×short diameter (mm)/2, and a significant difference test based on a Mann-Whitney U method (significance level: P<0.05) was conducted. […]

binding activity, mCCR8 (mouse CCR8): x | binding activity, hCCR4 (human CCR4): x
B1: 2C7: mouse anti-human CCR8 neutralizing antibody; light chain SEQ ID NO: 35, heavy chain SEQ ID NO: 36 (antibody, V domains shown)
VH: QVQLKQSGPSLVQPSQSLSITCTVSGFSLTAYGVHWIRQSPGKGQEWLGVIWRGGSTDYNAAFMSRLTITKDNSKSQVFFKMNSLQADDTAIYYCAKKGGSYAMDYWGQGTSVTVSS
VL: DVVLTQTPLSLPVSLGGQASISCRSSQSLVHSNGNTYLHWYLQKPGQSPKLLIYKVSNRFSGVPDRFSGSGSGTDFTLKISRVEAEDLGVYFCSQSTQVPLTFGAGTKLELKR
modifications: 2C7 VH; 2C7 VL

binding activity, loop2 hCCR4-hCCR8 (loop2 hCCR4-hCCR8): Δ | binding activity, mCCR8 (mouse CCR8): x | binding activity, hCCR4 (human CCR4): x | binding activity, hCCR8 (K35A) (hCCR8 (K35A)): x | binding activity, hCCR8 (T11A) (hCCR8 (T11A)): Δ | binding activity, loop1 hCCR4-hCCR8 (loop1 hCCR4-hCCR8): Δ | binding activity, hCCR8 (L5A) (hCCR8 (L5A)): Δ
B2: 1H4: mouse anti-human CCR8 neutralizing antibody; light chain SEQ ID NO: 29, heavy chain SEQ ID NO: 30 (antibody, V domains shown)
VH: EVQLVESGGRLVQPKGSLKLSCAASGFTFNTYAMYWIRQAPGKGLEWVARIRSKSNNYATYYADSVKDRFTISRDDSQSMLYLQMNNLKTEDTAMYYCVRARFYYSDYGYAMDYWGQGTSVTVSS
VL: DIVMTQAAPSVPVTPGESVSISCRSSKSLLHSNGNTYLYWFLQRPGQSPQLLIYRMSNLASGVPDRFSASGSGTAFTLRISRVEAEDVGVYYCMQHLEYPLTFGAGTKLELKR
modifications: 1H4 VH; 1H4 VL

binding activity, loop2 hCCR4-hCCR8 (loop2 hCCR4-hCCR8): Δ | binding activity, mCCR8 (mouse CCR8): x | binding activity, hCCR4 (human CCR4): x | binding activity, hCCR8 (K35A) (hCCR8 (K35A)): Δ | binding activity, hCCR8 (I20A) (hCCR8 (I20A)): Δ | binding activity, hCCR8 (I30A) (hCCR8 (I30A)): Δ
B3: 8F7: mouse anti-human CCR8 neutralizing antibody; light chain SEQ ID NO: 33, heavy chain SEQ ID NO: 34 (antibody, V domains shown)
VH: EVQLVESGGRLVQPKRSLKLSCAASGFTFNPYAMYWIRQAPGQGLEWVARIRSKSNNYATYYADSVKDRFTISRDDSQSMLYLQMNNLKTEDTAMYYCVRGHQGTMDYWGQGTSVTVSS
VL: B2 VL with I53T, A69G, L101F, A105G, L111I
modifications: 8F7 VH; 8F7 VL

B4: 2-7B: rat anti-human CCR8 antibody; light chain SEQ ID NO: 37, heavy chain SEQ ID NO: 38 (antibody, V domains shown)
VH: EVQLVESDGGLVQPGRSLKLSCAASGFTFSDYYMAWVRQAPTKGLEWVATITYDVYSTYYRDSVKGRFTISRDNAKSTLYLQMDSLRSEDTATYYCARHGGDGYNSGNWFAYWGQGTLVTVSS
VL: DIVLTQSPALAVSLGQRATISCRASQSVSISRYNIMHWYQQKPGQQPKLLIYRASNLASGIPARFSGSGSGTDFTLTINPVQADDIATYYCQQSRESPPTFGGGTKLELKR
modifications: 2-7B VH; 2-7B VL
tumor volume as compared to the control group [1]: no significant decrease

— patent publication US20230256092A1, “COMBINED USE OF ANTI-CCR8 ANTIBODY AND CHEMOTHERAPEUTIC AGENT” (Shionogi & Co., Ltd., priority 2020, published 2023)
